The values that follow come from US12173301B2, “Weed control methods and related compositions and plants” (Syngenta Crop Protection AG, priority 2019, dated 2024).

This data set in a line: FatA enzymatic kinetic parameters with oleoyl-CoA as substrate. It counts as biochemical. Particulars: Michaelis-Menten; for Km: read-out: Km (μM) - best fit. The protocol:
For the determination of FatA enzymatic kinetic parameters with oleoyl-CoA as substrate, assays are carried out essentially as described above for the testing of inhibitor compounds but with some changes to the method as follows. Oleoyl CoA is omitted from the assay master mix and added as a separate component to achieve final concentration of 40 μM, 23.5 μM. 13.8 μM, 8.1 μM, 4.8 μM, 2.8 μM and 1.7 μM (i.e. 1.7× dilution scheme). The level of enzymatic activity is determined from the slope of the progress curve (initial linear rates) using assay values measured at 0, 20, 40, 60, 90 and 120 s after addition of the enzyme. Kinetic parameters are then calculated using the Michaelis-Menten model as implemented in GraphPad Prism software.
FatA variant enzymes were prepared from 1 L E coli grows and assays carried out to determine enzyme kinetics as described in Example 1.

B1: N269W: Arabidopsis FatA acyl-ACP thioesterase variant, substitution N269W relative to SEQ ID NO: 1 (protein, listed as Arabidopsis thaliana)
chain: MLKLSCNVTDSKLQRSLLFFSHSYRSDPVNFIRRRIVSCSQTKKTGLVPLRAVVSADQGSVVQGLATLADQLRLGSLTEDGLSYKEKFVVRSYEVGSNKTATVETIANLLQEVGCNHAQSVGFSTDGFATTTTMRKLHLIWVTARMHIEIYKYPAWGDVVEIETWCQSEGRIGTRRDWILKDSVTGEVTGRATSKWVMMNQDTRRLQKVSDDVRDEYLVFCPQEPRLAFPEENNRSLKKIPKLEDPAQYSMIGLKPRRADLDMNQHVNWVTYIGWVLESIPQEIVDTHELQVITLDYRRECQQDDVVDSLTTTTSEIGGTNGSATSGTQGHNDSQFLHLLRLSGDGQEINRGTTLWRKKPSS
Regarding B1, the “kcat (s^−1) - best fit” value is 0.7 s⁻¹ and the Km was 1 µM.

B2: A144Y: Arabidopsis FatA acyl-ACP thioesterase variant, substitution A144Y relative to SEQ ID NO: 1 (protein, listed as Arabidopsis thaliana)
chain: MLKLSCNVTDSKLQRSLLFFSHSYRSDPVNFIRRRIVSCSQTKKTGLVPLRAVVSADQGSVVQGLATLADQLRLGSLTEDGLSYKEKFVVRSYEVGSNKTATVETIANLLQEVGCNHAQSVGFSTDGFATTTTMRKLHLIWVTYRMHIEIYKYPAWGDVVEIETWCQSEGRIGTRRDWILKDSVTGEVTGRATSKWVMMNQDTRRLQKVSDDVRDEYLVFCPQEPRLAFPEENNRSLKKIPKLEDPAQYSMIGLKPRRADLDMNQHVNNVTYIGWVLESIPQEIVDTHELQVITLDYRRECQQDDVVDSLTTTTSEIGGTNGSATSGTQGHNDSQFLHLLRLSGDGQEINRGTTLWRKKPSS
For the molecule B2, the “kcat (s^−1) - best fit” value stood at 11.5 s⁻¹ and the Km was found to be 3.9 µM.

B3: A118V: Arabidopsis FatA acyl-ACP thioesterase variant, substitution A118V relative to SEQ ID NO: 1 (protein, listed as Arabidopsis thaliana)
chain: MLKLSCNVTDSKLQRSLLFFSHSYRSDPVNFIRRRIVSCSQTKKTGLVPLRAVVSADQGSVVQGLATLADQLRLGSLTEDGLSYKEKFVVRSYEVGSNKTATVETIANLLQEVGCNHVQSVGFSTDGFATTTTMRKLHLIWVTARMHIEIYKYPAWGDVVEIETWCQSEGRIGTRRDWILKDSVTGEVTGRATSKWVMMNQDTRRLQKVSDDVRDEYLVFCPQEPRLAFPEENNRSLKKIPKLEDPAQYSMIGLKPRRADLDMNQHVNNVTYIGWVLESIPQEIVDTHELQVITLDYRRECQQDDVVDSLTTTTSEIGGTNGSATSGTQGHNDSQFLHLLRLSGDGQEINRGTTLWRKKPSS
For the molecule B3, the “kcat (s^−1) - best fit” value was 4.5 s⁻¹ and the Km worked out at 2.4 µM.
